Test: yeast display, Sf9 membrane polyspecificity reagent, FACS + sequencing; frameworks hold sequencing errors
Outline: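 Nanobodies came from a synthetic yeast display library in Saccharomyces cerevisiae BJ5465, induced with galactose for 36–48 hours and stained for 1 hour at 4 °C with 10% biotinylated, detergent-solubilized Sf9 membrane reagent. Cells were enriched on streptavidin microbeads and then FACS-sorted, with low and high (top ~1%) gates set on anti-HA fluorescence for expression and streptavidin fluorescence for reagent binding. Each polyreactivity label reflects the gate a clone came from. Genes were amplified by colony PCR, sequenced by MiSeq 2 × 250 and filtered by CDR length.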

Row | Sequence | polyreactivity (PSR sort gate)
1 | QVQLVESGGGLVQAGGSLRLSCAASGSIFFSYAMGWYRQAPGKERELVAAISTSGGNTYYADSVKGRFTISRDNAKNTVYVQMNSLKPEDTAVYYCNARGSYPPYRSYGYWGQCTQVTVSS | low polyreactivity
2 | QVQLVESGGGLVQAGGSLRLSCAASGFIFGDYAMGWYRQAPGKERELVAAISRSGGRTYYADSVKGRFTISRDNAKNTVYLQMNSLKPEDTAVYDCAKSCLNIYDYWGQVTQVTVSS | high polyreactivity
3 | QVQLVESGGGLVQAGGSLRLSCAAYGGFFWYYTMGRYRQAPGKEREFVATITKRGGRTYYADSVKGRFTISRDNAKITVYLQMNSLKPEDTAVYFCNALGGPKSVRFDYWGQGTQVTVSS | high polyreactivity
4 | QVQLVESGGGLVQAGGSLRLSCAASGSTFHWYAMGWYRQAPGKERELVAVITWSGGSTYYADSVKGRFTISRDNAKNTVYLQMNSLKPEDTAVYYCARDWYRYKLWLFRGQDGDYWGQGTQVTVSS | low polyreactivity
5 | QVQLVESGGGLVQAGGSLRLSCAASGRIFPWYTMGWYRQAPGKERELVAVISSGGRTHYADSVKGRFTISRDNAKNTVYLQMNSLKPEDTAVYYCAAESRYQRYDYWGQGTQVTVSS | high polyreactivity
6 | QVQLVESGGGLVQAGGSLRLSCPASGRIFRYYPMGWYRQAPGKEREFVAGITWSGGRTYYADSVKGRFTISRDNAKNTVFVQMNSLKPEDTAVYYCNADAGTRVGWWDDYDYWGQGTQVTVSS | low polyreactivity
7 | QVQLVESGGGLVQAGGSLRLSCAASGFTFYRNAMGWYRKAPGKERELVAAISWSGDSTYYADSVKGRFTISRDNAKNTVYLQMNSLKPEDTAVYYCAKSRYTALTNHWSHDYWGQGTQVTVSS | low polyreactivity
8 | QVQLVESGGGLVQAGGSLRLSCAASGSTNRAYAMGWYRQAPGKERELVAAISYSGDSTYYADSVKGRFTISRDNAKNTVYLQMNSLKPEVTAVYYCNTAVWGPHRYDYWGQGTQVTVSS | low polyreactivity
9 | QVQLVESGGGLVQAGGSLRLSCAASGVILYFHAMGWYRQAPGKERELVAAITSDGGSTYYADSVKGRFTISRDDAKNTVYLQMNSLKPEDTAVYYCAADASTWYTEEYWGQGTQVTVSS | low polyreactivity
10 | QVQLVESGGGLVQAGGSLRLSCAASGIIFWYYAMGWYRQAPGKERELVASISGTGGTTYYADSVKGRFTISRDNAKNTVYLQMNSLKPEDTAVYYCAALSGQHDYDYWGQVTQVTVSS | low polyreactivity
11 | QVQLVESGGGLVQAGGSLRLSCAASGRIFYLNVMGWYRQAPGKERELVAAITRRDVTTYADSVKGRFTISRDNAKNTVYLQMNSLKPEDTAVYYCNAVYYNWIGFDYSGQGTQVTVSS | low polyreactivity
12 | QVQLVESGGGLVQAGGSLRLSCAASGRTFPYYAMGWYRQAPGKERELVAAITRGVRTHYADSVKGRFTISRDNAKYTVYLQMNSLKPEDTAVYYCAREDWGSYSDMDSWGQGTQVTVSS | low polyreactivity
13 | QVQLVESGGGLVQAGGSLRLSCAASGRNFIYNAMGWYRQAPGKERELVAAISRSGGSTNYADSVKGRFTISRDNAKNTVYLQMNSLKPEDTAVYYCAVDSGRYYYYLGFSTRYYWGQGTQVTVSS | high polyreactivity
14 | QDQLVESGGGLVQAGGSLRLTCAASGFNYRRNAMGWYRQAPGKERELVAAITASGGRTYYADSVKGRFTISRDNAKNTVYLQMNSLKPEDTAVDYCARDTAGFTRFSSKYDYWGQGTQVTLSS | high polyreactivity
15 | QVQLVESGGGLVQAGGSLRLSCAASGFTYYYYAMGWSRQAPGKVRELVAAITYSGGSTYYADSVKGRFTISRDNAKNTVYLLMNSLKPEDTAVYYCNAVVGRWFPFNLSDYWGQGTQVTVSS | low polyreactivity
16 | QVQLVESGGGLVQAGGSLRLICAASGIIFSSNAMGWSRQAPGKERELVAAISNTGRTNYADSVKGRFTISRDNAKNTVYLQLNSLKPEDTAVYYCAARLSRRYYSYYYWGQGTQVTVSS | high polyreactivity
17 | QVQLVESGGGLVQAGGSLRLSCAASGYTFPRYAMGWYRQAPGKERELVAAITWSGGSTYYADSVKGRFTISRDNAKNTVYLQMNSLKPEDTAVYYCNTDRYHRVDFDYWGQGTQVTVSS | high polyreactivity
18 | HVQLVESGGGLVQAGGSLRLSCAASGRIFYYNGMGWYRPAPGKERELVAAITPSDTSTYYAVSVKGRFTISRDNAKNTVYLQMNSLKPEDTAVYYCNADYDNHEMDYWGQGTQVTVSS | low polyreactivity
19 | QVQLVESGGGLVQAGGSLRLSCAASGFIFKYYAMGWYRHAPGKERELVAAISRRGGSTFYADSVKGRFTISRDNAKNTVYLQMNSLKPEDTAVYYCAKYPQTLPIDVWTWIHDYWGQGTQVTVSS | high polyreactivity
20 | QVQLVESGGGLVQAGGSLRLSCAASGLIFDYYGMGWYRQAPGKEREFVAAINRSGGTTYYADSVKGRFTISRDNAKNTVYLQMNSLKPEDTAVYYCNADRGPAKLVYDPVIMDYWGQGTQVTVSS | low polyreactivity
21 | QVQLVESGGGLVQAGGSLRLSCAASGFTFRYNAMGWYRQAPGKERELVAAISWSGGSTYYADSVKGRFTISRDNAKNTVYLQMNSLKPEDTAVYYCNRAYGYSFSLNRYDYWGQGTQVTVSS | low polyreactivity
22 | QVQLVESGGGLVQAGVSLRLSCAASGRTFALNVMGWYRQAPGKERELVAAISRSGGSTYYAESVKGRFTISRDNAKNTVYLQMNSLKPEDTAVYYCAAATHYQSYNRRDYWGQGTQVTVSS | high polyreactivity

Row | Sequence | polyreactivity (PSR sort gate)
23 | QVQLVESGGGLVQAGGSLRLSCAASGRTLYYYAMGWYRQAPGKERELVARISSRGGSTYYADSVKGRFTISRDNAKNTVYLQMNSLKPEDTAVYYCAADGPGTSEDDYWGQGTQVTVSS | high polyreactivity
24 | QVQLVESGGGLVQAGGSLRLSSAASGRIFSINVMGWYRHAPGKERELVAAISKRGGSTYYADSVKGRFTISRDNAKNTVYLQMNSLKPEDTAVYYCAVDRYSTDRVKTSYGYDYWGQGTQVTVSS | high polyreactivity
25 | QVQLVESGGGLVQAGGSLRLSCAASGIIFGTYVMGWYRQAPGKERELVAAINRSGGNTYYADSVKGRFTISRDNEKNTVYLQMNSLKPEDTAVYYCAAEEAYRSRRGGFDYWGQGTQVTVSS | high polyreactivity
26 | QVQLVESGGGLVQAGVSLRISCAASGFIFYYYAMGWYRQAPGKERELVAAISWSGGSTYYADSVKGRFTISRDNAKNTVYLQLNSLKPEDTSVYYCNARFRYARYSQRYDYWGQGTQVTVSS | high polyreactivity
27 | QVQLVESGGGLVQAGGSLRLSCAASGSIFYAYAMGWYRQAPRKERELVAAITRSGGSTYYADSVKGRFTISRDNAKNTVYLQMNSLKPEDTAVYYCAAVSRSRRMDFWGQGTQVTVSS | high polyreactivity
28 | QVQLVESGGGLVQAGGSLRLSCAASGSIFWWNAMGWYRQAPGKERELVARITRGGTTYYADSVKGRFTISRDNAKNTVYLQMNSLKPEDTAVYSCNAVSGWSRYDFWGQGSQVTVSS | low polyreactivity
29 | QVQLVESGGGLVQAGGSLRLSCAASGLTFEGNAMGWYRQAPGKERELVAAISRRGGSTYYADSVKGRFTISRHNAKNTVYLQMNSLKPEDSAVYYCAADRQPYTDKYDYWGQGTQVTVSS | high polyreactivity
30 | QVQLEESGGGLVQAGGSLRLICAASGRIFGVNAMGWYRQAHGKERELVAVISSGGSTYYADSVKGRFTISRDNAKNTVYLQMNSLKPEDTAVYYCNAVVGSWFPYNLSDYWGEGTQVTVSS | low polyreactivity
31 | QVQLVESGGGLVQAGGSLRLSCAASGIIFRLYAMGWYRQAPGKERELVAAISYRGGSTYYADSVKGRFTISRDNAKNTVYLQMNSLKPEDTAVYYCAARNPRYSFYYWGQGTQVTVSS | high polyreactivity
32 | QVQLVESGGGLVQAGGSLRLSCAASGSTFGDYAMGWYRQAPGKERELVAAISVSGASTYYADSVKGRFTISRDNAKNTVYLQMNSLKPEDTAVYYCAATYDTIGDSWGQGTQVTVSS | low polyreactivity
33 | QDQLVESGGGLVQAGGSLRLSCAASGRTFPRNGMGWYRQAPGKERELVAAISWSGGRTYYADSVKGRFTISRDNAKNTVYLQMNSLKPEDTAVYYCNALYFRKGGYWGQGTQVTVSS | high polyreactivity
34 | QVQLVESGGGLVQAGGSLRLSCAASGYTFPFYTMGWYRQAPGKERELVAAINSGGSTYYADSVKGRFTISRDNAKNTVYLQMNSLKPEDNAVYYCAVEGGFRVRYQAQYRYYYCGQGTQVTVSS | high polyreactivity
35 | QVQRVESGGGLVQAGGSLRLSCSASGRTFGHNTMGRYRQAPGKETEFVAAIDFNGGSTYYADSVKGRFTISRDNAQNTVYLQMNSLKPEDTAVYYCAADIYFYYYGSYDYWGQGTQVTVSS | low polyreactivity
36 | QVQLVESGGGLVQAGGSLRLSCAASGIIIAWYAMGWYRQAPGKERELVAAITSGGGSTYYADSVKGRFTISRDNAKNTVYLQMNSLKPEDTAVYYCAADYQTIGWGYDYWGQGTQVTVSS | low polyreactivity
37 | QVQLVESGGGLVQAGGSLRLSCAASGSIFKRNDMGWYRQAPGKERELVAAITWSGGSTYYADSVKGRFTISRDNAKNTVYLQMNSLKPEDTAVYYCNAARDDWYIIKYDYWGQGTQVTVSS | low polyreactivity
38 | QVQLVESGGGLVQAGGSLRLSCAASGLIFGWYAMGWYRQAPGKERELVAGISGSGGITYYADSVKGRFTISRDNAKNTVYLQMNSLKPEDTAVYYCNARYPRYYRGVIQYDFWGQGTQVTVSS | low polyreactivity
39 | QLQLVESGGGLVQAGGSLRLSCAASGRIFVLYTMGRNRQATGKERELVAAISNVGSTNYADSVKGRFTISRDNAKYTVYLQMNSLIPEDTAVYYCNDRRRYGWHLYYYWGQGTQVTVSS | high polyreactivity
40 | QVQVGESGGGLVQAGGSLSLSCAASGSIFPANAMGWYRQAPGKERELVAAITRGGRTYYADSVKGIFTISRDNAKNCVYLQMNSLKPEDTAVYDCAAYVLSKREYYRYDYWGQGTQVTVSS | high polyreactivity
41 | QVQLVESGGGLVQAGGSLRLSCSASGSIFKRNAMGWYRQAPGKERELVAAITTRGGRTYYADSVKGRFTISRDNAKNTVYLQLNSLKPEDTAVYFCAVVPAAGSGGYGYSRYDYWGQGSQVTVSS | high polyreactivity
42 | QVQLVESGGGLVQAGGSLRLSCAASGSTFKYNTMGWYRQAPGKKGELVAAITISGGTTRYADSVKGRFTISRDNAKNTVYLQMNSLKPEDTAVYYCAARVYTYYYDLHKRYYWGQGTQVTVSS | high polyreactivity
43 | QVQLVESGGGLVQAGGSLRLSCAASGLIFGTYAMGWYRQAPGKERELVATITRGGGSTYYADSVKGRFTISRDNAKNTVYLQMNSLKPEDTAVYDCAKTYFYGVRRFNYWGQGTQVTVSS | high polyreactivity
